Experimental findings from paper PMC4141822 are described below.

Residue numbers refer to the chain shown, from its start. In names and notes the source's numbering stands.

For series [1], the target named is T1, Csa5 (Csa5b) WT (Thermoproteus tenax Kra1) (UniProt G4RJZ0).
T1 sequence: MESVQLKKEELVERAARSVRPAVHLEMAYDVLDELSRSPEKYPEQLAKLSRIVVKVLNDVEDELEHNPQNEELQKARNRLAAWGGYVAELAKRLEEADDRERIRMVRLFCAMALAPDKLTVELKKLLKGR
As to the kind of experiment: EMSA. The conditions noted are these: EMSA: 100 mM HEPES/KOH pH 7, 10 mM beta-mercaptoethanol, 37 C 30 min, 6% native TBE PAGE; MST: 50 mM Tris-HCl pH 7.4, 150 mM NaCl, 0.05% Tween-20, 37 C 30 min …. For orientation: In EMSA bound probe runs differently from free probe, usually more slowly.

Series [2] has as its target T2, Csa5 (Csa5b) WT (Thermoproteus tenax Kra1, UniProt G4RJZ0 1-130).
T2 sequence: T1 sequence
As to the kind of experiment: EMSA; 7-fold weaker than NT DNA; EMSA: 100 mM HEPES/KOH pH 7, 10 mM beta-mercaptoethanol, 37 C 30 min, 6% native TBE PAGE; MST: 50 mM Tris-HCl pH 7.4, 150 mM NaCl, 0.05% Tween-20, 37 C 30 min. The conditions noted are these: protein: recombinant; tags: none stated (pET24a); label: 5' 32P.

For a further series, the target named is T3, Thermoproteus tenax Cas7 (Thermoproteus tenax, UniProt G4RJZ1 1-329).
T3 sequence (looked up): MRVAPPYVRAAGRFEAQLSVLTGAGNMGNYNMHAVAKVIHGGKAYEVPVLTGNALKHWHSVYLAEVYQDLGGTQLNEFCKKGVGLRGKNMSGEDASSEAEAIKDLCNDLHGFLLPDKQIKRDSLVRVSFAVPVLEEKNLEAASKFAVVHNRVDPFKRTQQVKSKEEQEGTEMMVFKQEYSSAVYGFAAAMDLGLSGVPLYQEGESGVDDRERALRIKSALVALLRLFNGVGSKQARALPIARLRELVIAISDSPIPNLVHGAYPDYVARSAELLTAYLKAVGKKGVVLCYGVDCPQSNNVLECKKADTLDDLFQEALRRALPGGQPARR
In words: co-refolding reconstitution, soluble fraction by SDS-PAGE; 300 µg of each GdmCl-solubilized Cas5a, Cas3′, Cas3″ and Cas8a2 mixed with purified Cas7 and a Csa5 variant, co-refolded by stepwise dialysis into GdmCl-free buffer; aggregates precipitated (14,000×g, 30 min, 4°C), soluble proteins concentrated and analysed by SDS-PAGE. The conditions noted are these: both partners purified.

For series [3], the target named is T4, Thermoproteus tenax Cas5a (Thermoproteus tenax, UniProt G4RJZ2 1-226).
T4 sequence (looked up): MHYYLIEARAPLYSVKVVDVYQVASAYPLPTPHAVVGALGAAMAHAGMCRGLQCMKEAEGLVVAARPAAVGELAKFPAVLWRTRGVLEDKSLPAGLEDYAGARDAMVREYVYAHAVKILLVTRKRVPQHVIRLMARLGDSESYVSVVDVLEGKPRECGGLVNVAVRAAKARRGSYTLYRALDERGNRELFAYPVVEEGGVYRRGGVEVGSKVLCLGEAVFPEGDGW
The series is described as above. The conditions noted are these: both partners purified.

In series [4] the target is T5, Thermoproteus tenax Cas8a2 (Thermoproteus tenax, UniProt G4RJZ5 1-361).
T5 construct: also called large subunit
T5 sequence (looked up): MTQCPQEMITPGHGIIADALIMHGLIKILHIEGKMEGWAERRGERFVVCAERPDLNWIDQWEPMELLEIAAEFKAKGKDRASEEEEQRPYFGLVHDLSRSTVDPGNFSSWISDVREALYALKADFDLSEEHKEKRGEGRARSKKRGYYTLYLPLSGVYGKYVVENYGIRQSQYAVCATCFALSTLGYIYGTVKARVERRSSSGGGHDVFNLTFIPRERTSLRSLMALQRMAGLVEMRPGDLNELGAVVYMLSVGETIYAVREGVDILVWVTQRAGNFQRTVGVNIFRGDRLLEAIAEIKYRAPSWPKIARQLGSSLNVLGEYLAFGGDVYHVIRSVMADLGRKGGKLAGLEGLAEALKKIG
The description is as above. Particulars: both partners purified.

Series [5] addresses T2, Csa5 (Csa5b) WT. In words: EMSA; 3.75-60 uM Csa5; EMSA: 100 mM HEPES/KOH pH 7, 10 mM beta-mercaptoethanol, 37 C 30 min, 6% native TBE PAGE; MST: 50 mM Tris-HCl pH 7.4, 150 mM NaCl, 0.05% Tween-20, 37 C 30 min. Particulars: protein: recombinant; tags: none stated (pET24a); label: 5' 32P.
Series [6] has as its target T2, Csa5 (Csa5b) WT. In words: MST; Tris pH 7.4, 150 mM NaCl; no metal; EMSA: 100 mM HEPES/KOH pH 7, 10 mM beta-mercaptoethanol, 37 C 30 min, 6% native TBE PAGE; MST: 50 mM Tris-HCl pH 7.4, 150 mM NaCl, 0.05% Tween-20, 37 C 30 min. The conditions noted are these: protein: recombinant; tags: none stated (pET24a); label: 5' Cy3.
Series [7] concerns the target T2, Csa5 (Csa5b) WT. As to the kind of experiment: EMSA; 15 uM Csa5; EMSA: 100 mM HEPES/KOH pH 7, 10 mM beta-mercaptoethanol, 37 C 30 min, 6% native TBE PAGE; MST: 50 mM Tris-HCl pH 7.4, 150 mM NaCl, 0.05% Tween-20, 37 C 30 min. The conditions noted are these: protein: recombinant; tags: none stated (pET24a); label: 5' 32P.
In series [8] the target is T2, Csa5 (Csa5b) WT. As to the kind of experiment: EMSA; duplex formed with 1000x cold crRNA; 15 uM Csa5; EMSA: 100 mM HEPES/KOH pH 7, 10 mM beta-mercaptoethanol, 37 C 30 min, 6% native TBE PAGE; MST: 50 mM Tris-HCl pH 7.4, 150 mM NaCl, 0.05% Tween-20, 37 C 30 min. Particulars: protein: recombinant; tags: none stated (pET24a); label: 5' 32P on DNA.
Series [9] concerns the target T2, Csa5 (Csa5b) WT. In words: EMSA; no difference from GAG-PAM; EMSA: 100 mM HEPES/KOH pH 7, 10 mM beta-mercaptoethanol, 37 C 30 min, 6% native TBE PAGE; MST: 50 mM Tris-HCl pH 7.4, 150 mM NaCl, 0.05% Tween-20, 37 C 30 min. The conditions noted are these: protein: recombinant; tags: none stated (pET24a); label: 5' 32P.
Series [10] concerns the target T2, Csa5 (Csa5b) WT. As to the kind of experiment: EMSA; no difference from AGG-PAM; EMSA: 100 mM HEPES/KOH pH 7, 10 mM beta-mercaptoethanol, 37 C 30 min, 6% native TBE PAGE; MST: 50 mM Tris-HCl pH 7.4, 150 mM NaCl, 0.05% Tween-20, 37 C 30 min. The conditions noted are these: protein: recombinant; tags: none stated (pET24a); label: 5' 32P.

Take “GTCGACTAATACGACTCACTATAGGCCTATCGCTTGTCCAACCGGGCTCCTCTATATGTCGTCATTAGCTTACCGCTGAGCAATAACTAGCAAGCTT (double strand) [NT/T dsDNA 97 bp]”: the binding signal (fold weaker than ssDNA) in [1] is 14.
For the molecule CGTCATTAGCTTACCGCTGAGCAATAACTAGCAAGCTT (ssDNA) [p3 (38 nt)], the binding signal with Csa5 (Csa5b) WT [2] was 12 % bound at 15 uM.

B1: Thermoproteus tenax Csa5 wild type (TTX_1250) (natural protein, Thermoproteus tenax Kra1, UniProt G4RJZ0 1-130, looked up)
chain: T1 sequence
notes: Csa5 (Csa5b), small subunit of the type I-A Cascade, Thermoproteus tenax Kra1, locus TTX_1250; theoretical mass of the monomer 15.04 kDa; no tag is named and the purification uses none; also called Csa5 WT; Csa5b; source: E. coli Rosetta(DE3)pLysS, purified (heat precipitation 90°C, Blue-Sepharose, MonoQ)
In the case of B1, the binding result (with Thermoproteus tenax Cas7; in series [3]; in series [4]) was “binds” throughout.

B2: Thermoproteus tenax Csa5 D30A/D33A (natural protein, Thermoproteus tenax Kra1, UniProt G4RJZ0 1-130, looked up)
chain: T1 sequence with D30A, D33A
notes: Made by site-directed mutagenesis of the pET24a csa5 construct; source: E. coli Rosetta(DE3)pLysS, purified (heat precipitation 90°C, Blue-Sepharose, MonoQ)
Turning to B2, the binding result (with Thermoproteus tenax Cas7; in series [3]; in [4]) was “binds” throughout.

B3: Thermoproteus tenax Csa5 Y29A (natural protein, Thermoproteus tenax Kra1, UniProt G4RJZ0 1-130, looked up)
chain: T1 sequence with Y29A
notes: as for B2
Regarding B3, the binding result (with Thermoproteus tenax Cas7; in series [3]; in series [4]) was “binds” each time.

B4: Thermoproteus tenax Csa5 D33A (natural protein, Thermoproteus tenax Kra1, UniProt G4RJZ0 1-130, looked up)
chain: T1 sequence with D33A
notes: as for B2
Regarding B4, the binding result (in the series with Thermoproteus tenax Cas7; in series [3]; in series [4]) was “binds” each time.

B5: CCA-PAM poly-PAM ssDNA (ssDNA)
DNA: AAAACCAAAACCAAAACCAAAACCAAAACCAAAACCAAAACCAAAACCAAAACCAAAACCAAAACCAAAACCAAAACCAAAACCAAAACCAAAACCAAAA
Regarding B5, the binding result in the series with Csa5 (Csa5b) WT [5] is “binds”.

B6: Cy3-non-target ssDNA 80 nt (ssDNA)
DNA: CGACTCACTATAGGCCTATCGCTTGTCCAACCGGGCTCCTCTATATGTCGTCATTAGCTTACCGCTGAGCAATAACTAGC
As a reminder, the Kd is the constant that tells how readily two partners part at equilibrium. As for B6, the dissociation constant (Kd) with Csa5 (Csa5b) WT [6] worked out at 6.49 µM.

B7: target (T) ssDNA 97 nt (ssDNA)
DNA: AAGCTTGCTAGTTATTGCTCAGCGGTAAGCTAATGACGACATATAGAGGAGCCCGGTTGGACAAGCGATAGGCCTATAGTGAGTCGTATTAGTCGAC
Turning to B7, the binding result with Csa5 (Csa5b) WT [7] is on record as “binds”.

B8: T DNA:crRNA hybrid (DNA:RNA)
DNA: B7 DNA
RNA: AUUGAAAGAUCGCUUGUCCAACCGGGCUCCUCUAUAUGUCGUCAUUAGCUUAGA
Take B8: in the series with Csa5 (Csa5b) WT [8], the binding result is “no binding”.
Regarding ATCGCTTGTCCAACCGGGCTCCTCTATATGTCGTCATT (ssDNA) [p2 (38 nt)], the binding signal with Csa5 (Csa5b) WT [2] amounted to 12 % bound at 15 uM.

B9: AGG-PAM poly-PAM ssDNA (ssDNA)
DNA: AAAAGGAAAAGGAAAAGGAAAAGGAAAAGGAAAAGGAAAAGGAAAAGGAAAAGGAAAAGGAAAAGGAAAAGGAAAAGGAAAAGGAAAAGGAAAAGGAAAA
As for B9, the binding result with Csa5 (Csa5b) WT [9] was “binds”.

B10: GAG-PAM disrupted poly-PAM ssDNA (ssDNA)
DNA: AAAAGAGAAAGAGAAAGAGAAAGAGAAAGAGAAAGAGAAAGAGAAAGAGAAAGAGAAAGAGAAAGAGAAAGAGAAAGAGAAAGAGAAAGAGAAAGAGAAA
For the molecule B10, the binding result in the series with Csa5 (Csa5b) WT [10] is recorded as “binds”.

B11: CAC-PAM disrupted poly-PAM ssDNA (ssDNA)
DNA: AAAACACAAACACAAACACAAACACAAACACAAACACAAACACAAACACAAACACAAACACAAACACAAACACAAACACAAACACAAACACAAACACAAA
On to B11, for which the binding result in the series with Csa5 (Csa5b) WT [5] was “binds”.
Consider GTCGACTAATACGACTCACTATAGGCCTATCGCTTGTC (ssDNA) [p1 (38 nt)], for which the binding signal with Csa5 (Csa5b) WT [2] came to 12 % bound at 15 uM.
